Measured values taken from US11866760B2, “Microorganisms for the production of insect pheromones and related compounds” (Provivi, Inc., priority 2017, dated 2024).
“And” between values parts separate entries of the source, which are not always exact repeats. Equal values may be shown once.

How the values were obtained:
Type in all cases: cell-based, Saccharomyces cerevisiae
S. cerevisiae ΔOLE1 = experiment: ΔOLE1 growth complementation assay without UFA
Source text: S. cerevisiae ΔOLE1 (MATA OLE1::LEU2 ura3-52 his4) was used as an expression host. A synthetic expression cassette termed pOLE1 (FIG. 10, SEQ ID NO: 4) which comprises the OLE1 promoter region (SEQ ID NOs: 5 and 6), nucleotides encoding for 27 N-terminal amino acids of the OLE1 leader sequence (SEQ ID NO: 7), and a VPS13 terminator sequence (SEQ ID NO: 8) was created, and cloned into pESC-URA vector in between SacI and EcoRI sites. To test the functionality of the pOLE1 cassette, Dasher GFP synthon was inserted in between SpeI and NotI sites to create pOLE1-GFP plasmid. Competent ΔOLE1 was transformed with pOLE1-GFP, and plated on CM-Ura glucose agar plate (Teknova) containing UFA (20 mm CM-URA glucose agar plate was coated with 100 μL CM-Ura glucose medium containing 1% tergitol, and 3 μL palmitoleic acid). […] Validation of ΔOLE1 complementation was performed by restoring OLE1 activity. Specifically, native S. cerevisiae OLE1 synthon was inserted into pOLE1 cassette devoid of the leader sequence to create pOLE1-OLE1 plasmid. After transformation of ΔOLE1, and selection on CM-Ura glucose agar containing UFA, single colonies were patched onto YPD and CM-Ura glucose without UFA. After incubation at 30° C. for 5 days, growth was observed (FIG. 11A-FIG. 11E). As expected, Dasher GFP expression could not complement ΔOLE1 growth without UFA (FIG. 11A-FIG. 11E). DNA sequences which encode for desaturase variants were synthesized (to include nucleotide changes which remove restriction sites used for cloning purposes), and cloned into pOLE1 using SpeI-NotI sites (Genscript, SEQ ID NOs: 9-13). Complementation assay of ΔOLE1 with insect desaturases were performed in the same way as with OLE1 desaturase.

palmitic acid = experiment: in vivo bioconversion of palmitic acid into (Z)-11-hexadecenoic acid in S. cerevisiae ΔOLE1; conditions: ΔOLE1, ~96 h in minimal medium containing palmitic acid
Protocol: To assess functional expression, two positive transformation clones that had been patched on CM-Ura glucose agar medium containing UFA were inoculated in 1.5 mL CM-Ura glucose liquid medium containing palmitic acid (in ethanol) at a final concentration of 300 mg/L, and with 6.7 g/L of YNB. For (z)-11-hexadecenoic isomer confirmation, a 20 mL culture was generated. Bioconversion assay proceeded for 96 h at 28° C. prior to GC-MS analysis.
Total lipid composition as well as the (Z)-11-hexadecenoic acid quantification was based on modified procedures by Moss et al. (1982) (Moss, C. W., Shinoda, T. & Samuels, J. W. Determination of cellular fatty acid compositions of various yeasts by gas-liquid chromatography. J. Clin. Microbiol. 16: 1073-1079 (1982)) and Yousuf et al (2010) (Yousuf, A., Sannino, F., Addorisio, V. & Pirozzi, D. Microbial Conversion of Olive Oil Mill Wastewaters into Lipids Suitable for Biodiesel Production. J. Agric. Food Chem. 58: 8630-8635 (2010)). The pelleted cells (in 1.5 mL plastic tubes), usually about 10 mg to 80 mg, were resuspended in methanol containing 5% (w/w) of sodium hydroxide. […]
The regioselectivity of biologically produced (Z)-11-hexadecenoic acid was determined by comparing the fragmentation patterns of the dimethyl disulfide (DMDS) derivative with the DMDS derivative of an authentic standard. […]

Z11-hexadecenoic acid = experiment: in vivo bioconversion of Z11-hexadecenoic acid into Z11-hexadecenol by alcohol-forming reductases in S. cerevisiae
Source text: S. cerevisiae W303 (MATA ura3-1 trp1-1 leu2-3_112 his3-11_15 ade2-1 can1-100) and BY4742 (MATa POX1::kanMX his3Δ1 leu2Δ0 lys2Δ0 ura3Δ0) were used as expression hosts. DNA sequences which encode fatty alcohol reductase variants were redesigned to optimize expression in S. cerevisiae (SEQ ID NOs: 1-3). Generated synthons (Genscript) were cloned into pESC-URA vector using BamHI-XhoI sites to facilitate protein expression utilizing the Gal1 promoter. The resulting plasmid constructs were used to transform W303, and positive transformants were selected on CM agar medium (with 2% glucose, and lacking uracil) (Teknova). To assess functional expression, two positive transformation clones that have been patched on CM agar medium (with 2% glucose, and lacking uracil) were used to seed CM liquid medium using a 24 deep-well plate format. […]
The lipids were extracted according to a modified procedure of Hagström et al. (2012) (Hagström, A. K., Liénard, M. A., Groot, A. T., Hedenström, E. & Löfstedt, C. Semi-Selective Fatty Acyl Reductases from Four Heliothine Moths Influence the Specific Pheromone Composition. PLoS One 7: e37230 (2012)). […] The trimethylsilyl-esters, which were generated by this method were subsequently analyzed by GC-MS analysis. […] A Z11-hexadecenol calibration curve shown in FIG. 9 was used to quantify the Z11-hexadecenol produced from yeasts. […]

Molecule | rescue of ΔOLE1 growth without UFA (S. cerevisiae ΔOLE1; minimal medium (CM-Ura glucose) agar plate) | rescue of ΔOLE1 growth without UFA (S. cerevisiae ΔOLE1; rich medium (YPD) agar plate) | (Z)-9-hexadecenoic acid in C16-fatty acid (palmitic acid) [%] | hexadecanoic acid in C16-fatty acid (palmitic acid) | activity toward Z11-hexadecenoic acid among the reductases tested (Z11-hexadecenoic acid; S. cerevisiae) | Z11-hexadecenol production (Z11-hexadecenoic acid; W303A, within 48 h of protein induction, 300 mg/L Z11-hexadecenoic acid)
S. cerevisiae OLE1: native S. cerevisiae palmitoyl:CoA/stearoyl:CoA (Z)-9-desaturase, positive control (protein, UniProt P21147 1-510, looked up) Acyl-CoA desaturase 1: MPTSGTTIELIDDQFPKDDSASSGIVDEVDLTEANILATGLNKKAPRIVNGFGSLMGSKEMVSVEFDKKGNEKKSNLDRLLEKDNQEKEEAKTKIHISEQPWTLNNWHQHLNWLNMVLVCGMPMIGWYFALSGKVPLHLNVFLFSVFYYAVGGVSITAGYHRLWSHRSYSAHWPLRLFYAIFGCASVEGSAKWWGHSHRIHHRYTDTLRDPYDARRGLWYSHMGWMLLKPNPKYKARADITDMTDDWTIRFQHRHYILLMLLTAFVIPTLICGYFFNDYMGGLIYAGFIRVFVIQQATFCINSLAHYIGTQPFDDRRTPRDNWITAIVTFGEGYHNFHHEFPTDYRNAIKWYQYDPTKVIIYLTSLVGLAYDLKKFSQNAIEEALIQQEQKKINKKKAKINWGPVLTDLPMWDKQTFLAKSKENKGLVIISGIVHDVSGYISEHPGGETLIKTALGKDATKAFSGGVYRHSNAAQNVLADMRVAVIKESKNSAIRMASKRGEIYETGKFF | rescued ΔOLE1 growth without exogenous UFA | highest level of growth | ~31.4 | approximately 68.6% | – | –
H. armigera reductase: Helicoverpa armigera alcohol-forming fatty acyl-CoA reductase, SEQ ID NO: 41 (protein, Helicoverpa armigera alcohol forming reductase (HaFAR)) MVVLTSKETKPSVAEFYAGKSVFITGGTGFLGKVFIEKLLYSCPDIENIYMLIREKKGLSVSERIKQFLDDPLFTRLKDKRPADLEKIVLIPGDITAPDLGINSENEKMLIEKVSVIIHSAATVKFNEPLPTAWKINVEGTRMMLALSRRMKRIEVFIHISTAYTNTNREVVDEILYPAPADIDQVHQYVKDGISEEDTEKILNGRPNTYTFTKALTEHLVAENQAYVPTIIVRPSVVAAIKDEPLKGWLGNWFGATGLTVFTAKGLNRVIYGHSSYIVDLIPVDYVANLVIAAGAKSSKSTELKVYNCCSSSCNPVTIGTLMSMFADDAIKQKSYAMPLPGWYIFTKYKWLVLLLTFLFQVIPAYVTDLSRHLIGKSPRYIKLQSLVNQTRSSIDFFTNHSWVMKADRVRELYASLSPADKYLFPCDPTDINWTHYIQDYCWGVRHFLEKKSYE | – | – | – | – | most active | ≤ 70 μM and ≤ 16 mg/L
